For this test, the target named is mouse recombinant His-calmodulin, calcium-bound (mouse), P0DP26.

The term Kd denotes the constant that tells how readily two partners part at equilibrium.

With INLKALAALAKKIL (modifications not checked) [Mastoparan, P01514 1-14], the Kd stood at 1.2 nM.

These data come from patent US20210156867A1.
